Measured values from US20220380463A1 (Adimab, published 2022).

T1: Cynomolgus CD3εδ Fc heterodimer (Cy CD3ε Fc / CD3δ Fc-HIS) (cynomolgus, UniProt Q95LI8 22-100)
T1 chain 1: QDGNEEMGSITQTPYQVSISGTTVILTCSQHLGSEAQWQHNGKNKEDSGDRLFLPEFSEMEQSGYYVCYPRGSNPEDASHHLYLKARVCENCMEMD
T1 chain 2: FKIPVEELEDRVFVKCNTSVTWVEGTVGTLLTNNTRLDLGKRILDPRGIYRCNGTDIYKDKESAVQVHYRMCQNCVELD


Molecular target: T1, Cynomolgus CD3εδ Fc heterodimer (Cy …)
Assay: BLI (Octet), IgG on AHC sensor, pH 6.0

Row | Binder | koff
1 | SAD10319_P01_D01 (ADI-48622) (antibody, V domains shown, IgG; also called Ab231) VH: QVQLVQSGAEVKKPGASVKVSCKASGYTFKSYDMHWVRQAPGQRLEWMGWIDAGTGNTKYSQKFQGRVTITRDTSASTAYMELSSLRSEDTAVYYCARDAYGRYFYDVWGQGTLVTVSS VL: DIVMTQSPDSLAVSLGERATINCKSSQSLLNARTGKNYLAWYQQKPGQPPKLLIYWASTRESGVPDRFSGSGSGTDFTLTISSLQAEDVAVYYCKQSYSRRTFGGGTKVEIK | 0.00946 s⁻¹
2 | SAD10319_P01_B03 (ADI-57305) (antibody, V domains shown, IgG; also called Ab243) VH: QVQLVQSGAEVKKPGASVKVSCKASGYTFNAYAMHWVRQAPGQRLEWMGWINPDTGATTYSQKFQGRVTITRDTSASTAYMELSSLRSEDTAVYYCARDAYHHYFYDVWGQGTLVTVSS VL: DIVMTQSPDSLAVSLGERATINCKSSQSLLNARTGKNYLAWYQQKPGQPPKLLIYWASTRESGVPDRFSGSGSGTDFTLTISSLQAEDVAVYYCKQSYSRRTFGGGTKVEIK | 0.0245 s⁻¹
3 | SAD10319_P01_A02 (ADI-57301) (antibody, V domains shown, IgG; also called Ab236) VH: QVQLVQSGAEVKKPGASVKVSCKASGYTFTEYEMHWVRQAPGQRLEWMGWINPLTGNTKYSQKFQGRVTITRDTSASTAYMELSSLRSEDTAVYYCARDHYGHYFYDVWGQGTLVTVSS VL: DIVMTQSPDSLAVSLGERATINCKSSQSLLNARTGKNYLAWYQQKPGQPPKLLIYWASTRESGVPDRFSGSGSGTDFTLTISSLQAEDVAVYYCKQSYSRRTFGGGTKVEIK | 0.0165 s⁻¹
4 | SAD10319_P02_A05 (ADI-48629) (antibody, V domains shown, IgG; also called Ab255) VH: QVQLVQSGAEVKKPGASVKVSCKASGYTFDSYAMHWVRQAPGQRLEWMGWINPNTGATTYSQKFQGRVTITRDTSASTAYMELSSLRSEDTAVYYCARDHYGHYFYDVWGQGTLVTVSS VL: DIVMTQSPDSLAVSLGERATINCKSSQSLLNARTGKNYLAWYQQKPGQPPKLLIYWASTRESGVPDRFSGSGSGTDFTLTISSLQAEDVAVYYCKQSYSRRTFGGGTKVEIK | 0.0269 s⁻¹
5 | SAD10319_P01_G01 (ADI-57300) (antibody, V domains shown, IgG; ADI-57300 is also printed for Ab28; also called Ab234) VH: QVQLVQSGAEVKKPGASVKVSCKASGYTFTSADMHWVRQAPGQRLQPMGWINAGTGATKYSQKFQGRVTITRDTSANTAYMELSSLRSEDTAVYYCARDAYGRYFYDVWGQGTLVTVSS VL: DIVMTQSPDSLAVSLGERATINCKSSQSLLNARTGKNYLAWYQQKPGQPPKLLIYWASTRESGVPDRFSGSGSGTDFTLTISSLQAEDVAVYYCKQSYSRRTFGGGTKVEIK | 0.00249 s⁻¹
6 | SAD10319_P01_D02 (ADI-57303) (antibody, V domains shown, IgG; also called Ab239) VH: QVQLVQSGAEVKKPGASVKVSCKASGYTFTEYDMHWVRQAPGQRPEWMGWIDAGTGATVYSQKFQGRVTITRDTSASTAYMELSSLRSEDTAVYYCARDAYGRYFYDHWGQGTLVTVSS VL: DIVMTQSPDSLAVSLGERATINCKSSQSLLNARTGKNYLAWYQQKPGQPPKLLIYWASTRESGVPDRFSGSGSGTDFTLTISSLQAEDVAVYYCKQSYSRRTFGGGTKVEIK | 0.00686 s⁻¹
7 | SAD10319_P01_E01 (ADI-57298) (antibody, V domains shown, IgG; also called Ab232) VH: QVQLVQSGAEVKKPGASVKVSCKASGYTFDAYAMHWVRQAPGQRLEWMGWIDAGTGATAYSQKFQGRVTITRDTSASTAYMELSSLRSEDTAVYYCARDHYGHYFYDVWGQGTLVTVSS VL: DIVMTQSPDSLAVSLGERATINCKSSQSLLNARTGKNYLAWYQQKPGQPPKLLIYWASTRESGVPDRFSGSGSGTDFTLTISSLQAEDVAVYYCKQSYSRRTFGGGTKVEIK | 0.0281 s⁻¹
8 | SAD10319_P01_F01 (ADI-57299) (antibody, V domains shown, IgG; also called Ab233) VH: QVQLVQSGAEVKKPGASVKVSCKASGYTFQSYDMHWVRQAPGQRLQWMGWINPTTGNTVYSQKFQGRVTITRDTSASTAYMELSSLRSEDTAVYYCARDAYGRYFYDVWGQGTLVTVSS VL: DIVMTQSPDSLAVSLGERATINCKSSQSLLNARTGKNYLAWYQQKPGQPPKLLIYWASTRESGVPDRFSGSGSGTDFTLTISSLQAEDVAVYYCKQSYSRRTFGGGTKVEIK | 0.0179 s⁻¹
9 | SAD10319_P01_F02 (ADI-48624) (antibody, V domains shown, IgG; also called Ab241) VH: QVQLVQSGAEVKKPGASVKVSCKASGYTFESYDMHWVRQAPGQRLEWMGWIDAGTGNTKYSQKFQGRVTITADESTSTAYMELSSLRSEDTAVYYCARDHYGHYFYDVWGQGTLVTVSS VL: DIVMTQSPDSLAVSLGERATINCKSSQSLLNARTGKNYLAWYQQKPGQPPKLLIYWASTRESGVPDRFSGSGSGTDFTLTISSLQAEDVAVYYCKQSYSRRTFGGGTKVEIK | 0.00522 s⁻¹
10 | SAD10319_P01_D03 (ADI-57306) (antibody, V domains shown, IgG; also called Ab245) VH: QVQLVQSGAEVKKPGASVKVSCKASGYTFTSYNMHWVRQAPGQRLEWMGWIDAGTGATHYSQKFQGRVTITRDTSASTAYMELSSLRSEDTAVYYCARDAYHHYFYDVWGQGTLVTVSS VL: DIVMTQSPDSLAVSLGERATINCKSSQSLLNARTGKNYLAWYQQKPGQPPKLLIYWASTRESGVPDRFSGSGSGTDFTLTISSLQAEDVAVYYCKQSYSRRTFGGGTKVEIK | 0.00221 s⁻¹
11 | SAD10319_P01_H02 (ADI-48625) (antibody, V domains shown, IgG; also called Ab242) VH: QVQLVQSGAEVKKPGASVKVSCKASGYTFTDYAMHWVRQAPGQRLEWMGWINPSTGATVYSQKFQGRVTITRDTSASTAYMELSSLRSEDTAVYYCARDAYHHYFYDVWGQGTLVTVSS VL: DIVMTQSPDSLAVSLGERATINCKSSQSLLNARTGKNYLAWYQQKPGQPPKLLIYWASTRESGVPDRFSGSGSGTDFTLTISSLQAEDVAVYYCKQSYSRRTFGGGTKVEIK | 0.0314 s⁻¹
12 | SAD10319_P02_A04 (ADI-57307) (antibody, V domains shown, IgG; also called Ab247) VH: QVQLVQSGAEVKKPGASVKVSCKASGYTFDSYSMHWVRQAPGQRLEWMGWINPDTGATDYSQKFQGRVTITRDTSASTAYMELSSLRSEDTAVYYCARDHYGHYFYDVWGQGTLVTVSS VL: DIVMTQSPDSLAVSLGERATINCKSSQSLLNARTGKNYLAWYQQKPGQPPKLLIYWASTRESGVPDRFSGSGSGTDFTLTISSLQAEDVAVYYCKQSYSRRTFGGGTKVEIK | 0.0284 s⁻¹
13 | SAD10319_P01_C03 (ADI-48626) (antibody, V domains shown, IgG; also called Ab244) VH: QVQLVQSGAEVKKPGASVKVSCKASGYTFTDYDMHWVRQAPGQRLEWMGWIDPYTGATKYSQKFQGRVTITRDTSASTAYMELSSLRSEDTAVYYCARDAYGHYFYDVWGQGTLVTVSS VL: DIVMTQSPDSLAVSLGERATINCKSSQSLLNARTGKNYLAWYQQKPGQPPKLLIYWASTRESGVPDRFSGSGSGTDFTLTISSLQAEDVAVYYCKQSYSRRTFGGGTKVEIK | 0.0196 s⁻¹
14 | SAD10319_P01_C02 (ADI-57302) (antibody, V domains shown, IgG; also called Ab238) VH: QVQLVQSGAEVKKPGASVKVSCKASGYTFTEYNMHWVRQAPGQRLEWMGWINPLTGNTLYSQKFQGRVTITRDTSASTAYMELSSLRSEDTAVYYCARDAYHHYFYDVWGQGTLVTVSS VL: DIVMTQSPDSLAVSLGERATINCKSSQSLLNARTGKNYLAWYQQKPGQPPKLLIYWASTRESGVPDRFSGSGSGTDFTLTISSLQAEDVAVYYCKQSYSRRTFGGGTKVEIK | 0.0251 s⁻¹

Next, values leading:

Row | koff | Binder
15 | 0.0215 s⁻¹ | SAD10319_P02_C04 (ADI-57309) (antibody, V domains shown, IgG; also called Ab250) VH: QVQLVQSGAEVKKPGASVKVSCKASGYTFESYSMHWVRQAPGQRLEWMGWINPATGATDYSQKFQGRVTITRDTSASTAYMELSSLRSEDTAVYYCARDAYHHYFYDVWGQGTLVTVSS VL: DIVMTQSPDSLAVSLGERATINCKSSQSLLNARTGKNYLAWYQQKPGQPPKLLIYWASTRESGVPDRFSGSGSGTDFTLTISSLQAEDVAVYYCKQSYSRRTFGGGTKVEIK
16 | 0.0203 s⁻¹ | SAD10319_P02_B04 (ADI-57308) (antibody, V domains shown, IgG; also called Ab249) VH: QVQLVQSGAEVKKPGASVKVSCKASGYTFADYAMHWVRQAPGQRLEWMGWINPGTGSTKYSQKFQGRVTITRDTSASTAYMELSSLRSEDTAVYYCARDAYGHYFYDHWGQGTLVTVSS VL: DIVMTQSPDSLAVSLGERATINCKSSQSLLNARTGKNYLAWYQQKPGQPPKLLIYWASTRESGVPDRFSGSGSGTDFTLTISSLQAEDVAVYYCKQSYSRRTFGGGTKVEIK
17 | 0.00296 s⁻¹ | SAD10319_P02_D05 (ADI-57316) (antibody, V domains shown, IgG; also called Ab258) VH: QVQLVQSGAEVKKPGASVKVSCKASGYTFNDYAMHWVRQAPGQRLAWMGWIDAGTGNTYYSQKFQGRVTITRDTSASTAYMELSSLRSEDTAVYYCARDAHGHYFYDVWGQGTLVTVSS VL: DIVMTQSPDSLAVSLGERATINCKSSQSLLNARTGKNYLAWYQQKPGQPPKLLIYWASTRESGVPDRFSGSGSGTDFTLTISSLQAEDVAVYYCKQSYSRRTFGGGTKVEIK
18 | 0.00697 s⁻¹ | SAD10319_P02_C05 (ADI-57315) (antibody, V domains shown, IgG; also called Ab257) VH: QVQLVQSGAEVKKPGASVKVSCKASGYTFTDYNMHWVRQAPGQRLEWMGWINPLTGTTKYSQKFQGRVTITRDTSASTAYMELSSLRSEDTAVYYCARDAYHHYFYDVWGQGTLVTVSS VL: DIVMTQSPDSLAVSLGERATINCKSSQSLLNARTGKNYLAWYQQKPGQPPKLLIYWASTRESGVPDRFSGSGSGTDFTLTISSLQAEDVAVYYCKQSYSRRTFGGGTKVEIK
19 | 0.00322 s⁻¹ | SAD10319_P02_D04 (ADI-57310) (antibody, V domains shown, IgG; also called Ab251) VH: QVQLVQSGAEVKKPGASVKVSCKASGYTFTSYAMHWVRQAPGQRLQWMGWIDAGTGNTYYSQKFQGRVTITRDTSASTAYMELSSLRSEDTAVYYCARDAHGHYFYDVWGQGTLVTVSS VL: DIVMTQSPDSLAVSLGERATINCKSSQSLLNARTGKNYLAWYQQKPGQPPKLLIYWASTRESGVPDRFSGSGSGTDFTLTISSLQAEDVAVYYCKQSYSRRTFGGGTKVEIK
20 | 0.0388 s⁻¹ | SAD10319_P02_B05 (ADI-57314) (antibody, V domains shown, IgG; also called Ab256) VH: QVQLVQSGAEVKKPGASVKVSCKASGYTFADYAMHWVRQAPGQRLEWMGSINAGTGNTYYSQKFQGRVTITRDTSASTAYMELSSLRSEDTAVYYCARDAYGHYFYDVWGQGTLVTVSS VL: DIVMTQSPDSLAVSLGERATINCKSSQSLLNARTGKNYLAWYQQKPGQPPKLLIYWASTRESGVPDRFSGSGSGTDFTLTISSLQAEDVAVYYCKQSYSRRTFGGGTKVEIK
21 | 0.00313 s⁻¹ | SAD10319_P02_H04 (ADI-57313) (antibody, V domains shown, IgG; also called Ab254) VH: QVQLVQSGAEVKKPGASVKVSCKASGYTFTSYAMHWVRQAPGQRLEWMGWINPDTGATKYSQKFQGRVTITRDTSASTAYMELSSLRSEDTAVYYCARDAHGHYFYDVWGQGTLVTVSS VL: DIVMTQSPDSLAVSLGERATINCKSSQSLLNARTGKNYLAWYQQKPGQPPKLLIYWASTRESGVPDRFSGSGSGTDFTLTISSLQAEDVAVYYCKQSYSRRTFGGGTKVEIK
